What was measured:
[1] = tested on: MCF-7 inducible ALT cells; experiment: Mouse xenograft model, MCF7-ALT tumors; assay type: in vivo, NOD/SCID mice; conditions: day 17; start volume 200 mm3; Palbociclib 100 mg/kg daily gavage, doxycycline 0.1 mg/ml in drinking water
Experimental: FIG. 14: ALT slows tumor growth in animals, and ALT and PD dual treatment causes tumor regression. MCF-7 inducible ALT cells were injected into the 4th mammary gland of NOD/SCID mice. Tumors were allowed to develop to a volume of 200 mm3, before treatment. Vehicle: daily gavage with PBS. PD: Daily gavage of Palbociclib 100 mg/kg. Doxy: 0.1 mg/ml doxycycline added to the drinking water to allow continuous uptake and induction of ALT in the human cancer cells. Doxy+PD: Daily gavage of Palbociclib 100 mg/kg and 0.1 mg/ml doxycycline added to the drinking water. Vehicle treated animals rapidly progressed and by 17 days, tumor volumes were >3000 mm PD treatment slowed down tumor growth but by day 17, tumors were >2500. […] However, dual ALT and PD (doxy/PD) treatment, caused tumor regression by […] (e.g., from 200 mm3 down to 0-40 mm3), by day 5, which was durable up to day 19.
NP-ALT was added to cell media in the absence of fetal bovine serum for 6 hours. This media was removed and replaced with FBS+media, and cells were allowed to recover for 2 days, at which time, cell counts were determined. Counts were standardized to the proliferation seen in the NO FBS untreated control. • Expression in vivo. […] Tumor volume was monitored every other day using digital calipers. […] Doxy+PD: Daily gavage of Palbociclib 100 mg/kg and 0.1 mg/ml doxycycline added to the drinking water. • Quantitative RT-PCR. […]

cdk4 = target: T1, cdk4 (Homo sapiens, UniProt P11802); experiment: Immunoblot of pRBser780 as measure of active cdk4 (FIG. 10); assay type: cell-based; conditions: MCF7, drugs at IC50
T1 construct: added to or expressed in MCF7 breast cancer cells on day 2 post plating; endogenous in cells; host or cells: MCF7 (ALT-MCF7 tetracycline-inducible line)
T1 sequence (P11802 2-303 limits assumed): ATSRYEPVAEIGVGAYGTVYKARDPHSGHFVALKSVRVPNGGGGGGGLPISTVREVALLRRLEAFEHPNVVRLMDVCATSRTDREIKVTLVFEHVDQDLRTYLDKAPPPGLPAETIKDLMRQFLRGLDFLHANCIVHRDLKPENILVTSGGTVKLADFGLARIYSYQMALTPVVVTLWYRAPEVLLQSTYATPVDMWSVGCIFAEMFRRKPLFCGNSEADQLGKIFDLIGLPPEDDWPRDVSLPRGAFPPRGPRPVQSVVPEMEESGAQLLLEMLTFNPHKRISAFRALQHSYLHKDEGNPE
T1 sequence (P24385 whole entry partner): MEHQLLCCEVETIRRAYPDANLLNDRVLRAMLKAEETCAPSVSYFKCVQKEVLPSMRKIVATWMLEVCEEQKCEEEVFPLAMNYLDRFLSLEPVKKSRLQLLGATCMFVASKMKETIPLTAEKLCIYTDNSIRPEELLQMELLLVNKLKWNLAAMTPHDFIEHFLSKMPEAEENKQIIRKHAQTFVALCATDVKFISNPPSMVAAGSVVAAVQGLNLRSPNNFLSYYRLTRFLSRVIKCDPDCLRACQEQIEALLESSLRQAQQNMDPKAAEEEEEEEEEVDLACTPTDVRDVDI
Experimental: ALT, Palbociclib alone or in combination were added to or expressed in MCF7 breast cancer cells on day 2 post plating. […] ALT is expressed from an ALT-MCF7 tetracycline inducible cell line generated in the Blain lab. When tetracycline is added to the cell culture media, ALT is expressed in these cells. Vector: no tetracycline was added, so no ALT induction was detected. Drugs and media were replaced every two days. Cells were harvested every two days, lysed and used in immunoblot analysis.

MCF7 cells = experiment: Tetracycline inducible Alt Brk expression in MCF7 cells; assay type: cell-based, human; conditions: +Tet
Experimental: FIGS. 8A-8G: Alt Brk (SEQ ID NO: 17) acts as an endogenous inhibitor of Brk. (FIG. 8A) Flag tagged WT p27 was incubated with increasing amount of Flag tagged Alt-Brk (lanes 5-7) in presence of equal amount of Brk. Lane 5: +equimolar Brk and Alt, lane 6: ++2.5×Alt, lane 7: +++5×Alt Immunoblot analysis was performed using Flag, pY88 and pY74 antibodies. (FIG. 8B) Alt-Brk expressing cells were plated on day 0. They were induced (+Tet) or uninduced (−Tet) on day 1 and cells were harvested on days 2, 3 and 4 Immunoblot analysis was performed using N-terminal Brk, C-terminal Brk, Rb, Ser780 pRb, Flag or Actin antibodies. (FIG. 8C) p27 was immunoprecipitated from induced (+) or un-induced (−) Alt Brk expressing cells and immunoblot analysis was performed with p27, pY88 and pY74 antibodies. (FIG. 8D) Alt Brk or TRE3G vector alone cells were treated with + or −Tet and cell counts were used to monitor proliferation. […] (FIG. 8F) p27 was immunoprecipitated from MCF7 cells that were either contact arrested (G0), asynchronous (A), or serum starved with 1% and 0% serum for 48 h. Immunoblot analysis was performed to probe for p27, pY88 and pY74. IgG and Mv1Lu lysates served as a negative control. (FIG. 8G) Expression of WT or mutant p27s was induced by adding Tetracycline to the culture media. p27 was immunoprecipitated from cell lysates and probed for p27, pY88 and pY74 Immunoprecipitation with IgG served as a negative control.
NP-ALT was added to cell media in the absence of fetal bovine serum for 6 hours. This media was removed and replaced with FBS+media, and cells were allowed to recover for 2 days, at which time, cell counts were determined. Counts were standardized to the proliferation seen in the NO FBS untreated control. • Expression in vivo. Generation of the WT-Brk, KM-Brk, and YF-Brk has been described (32) Amphotropic retroviruses were generated by transfection using Lipofectamine 2000 (Life Technologies 11668-019) of HEK 293 cells with pAmpho envelope and pBabe or pTRE3G tetracycline inducible constructs. Following viral infection of MCF7 cells, stable integrants were isolated by puromycin selection. Colonies were pooled to generate stable, puromycin resistant clones. Stable expression was verified by immunoblot and immunofluorescence analysis. Tetracycline inducible expression was achieved by the addition of TetExpress (Clontech) to the media. • Mouse xenograft model. Female NOD/SCID 8 week old mice were injected with MCF7-ALT cells in the 4th mammary gland. Tumors were allowed to develop to a volume of 200 mm3, before treatment. Tumor volume was monitored every other day using digital calipers. Vehicle: daily gavage with PBS. […] Doxy+PD: Daily gavage of Palbociclib 100 mg/kg and 0.1 mg/ml doxycycline added to the drinking water. • Quantitative RT-PCR. […]

B1: Alt-Brk: alternative splice variant of Brk (SEQ ID NO: 17), 15 KD protein with SH3 domain, lacks kinase domain (protein, listed as Homo sapiens)
chain: MVSRDQAHLGPKYVGLWDFKSRTDEELSFRAGDVFHVARKEEQWWWATLLDEAGGAVAQGYVPHNYLAERETVESEPAGHAGCAALQDLAACRGPAAPERGGVLPQPARACELPQGPEPVPRPAAGRALPEARA
tumor volume [1]: ~1500 mm3 | cdk4 activity (pRBser780) (cdk4): inhibits cdk4 | Rb phosphorylation on residue Ser780 (MCF7 cells): Rb phosphorylation was reduced | cell cycle effect (cell counting, FACS) (MCF7 cells): arrested in G1 phase | endogenous p27 Y74 phosphorylation (MCF7 cells): unchanged | endogenous p27 Y88 phosphorylation (MCF7 cells): reduced
